Measured values reported in patent EP4810521A1, “ANTI-EGFR AND -HER3 BISPECIFIC ANTIBODY-DRUG CONJUGATE AND USE THEREOF” (priority 2023, dated 2025).

B1: Duligo-LC1-NT3 (bispecific antibody, human IgG1, lambda, L234A L235A, V domains shown)
VH: EVQLVESGGGLVQPGGSLRLSCAASGFTLSGDWIHWVRQAPGKGLEWVGEISAAGGYTDYADSVKGRFTISADTSKNTAYLQMNSLRAEDTAVYYCARESRVSFEAAMDYWGQGTLVTVSS
VL: DIQMTQSPSSLSASVGDRVTITCRASQNIATDVAWYQQKPGKAPKLLIYSASFLYSGVPSRFSGSGSGTDFTLTISSLQPEDFATYYCQQSEPEPYTFGQGTKVEIKG
notes: also called Duoligo-LC1-NT3; duoligo-LC1-NT3
B2: Duligo-DXd (conjugate, chains of the INN, looked up)
VH: B1 VH
VL: DIQMTQSPSSLSASVGDRVTITCRASQNIATDVAWYQQKPGKAPKLLIYSASFLYSGVPSRFSGSGSGTDFTLTISSLQPEDFATYYCQQSEPEPYTFGQGTKVEIK
modifications: DXd payload

Assays:
[1] = system: NUGC-4 tumor-bearing mouse model; experiment: Anti-tumor effect in NUGC-4 tumor-bearing mouse model; format: in vivo, BALB/c-NUDE mice; details: NUGC-4, 10 mg/kg single dose intraperitoneal injection, day 32
Description: In the present experiment, the BALB/c NUDE mice inoculated with NUGC-4 cells were used for determining the anti-tumor effect of the EGFR/HER3-ADCs.
The female BALB/c-NUDE mice were purchased from Beijing Vital River Laboratory Animal Technology Co., Ltd, with the grade of SPF, the quality control department is Beijing Vital River Laboratory Animal Technology Co., Ltd, and the certificate number was NO.110011230103807533. The mice were domesticated for 3 days after arrival, and then the study began.
NUGC-4 cells were purchased from NIBIOHN (CAT #: JCRB0834) and routinely subcultured in strict accordance with the instructions for subsequent in vivo experiments. The cells were collected by centrifugation, resuspended in sterile PBS and adjusted to a cell density of 20×10^6 cells/ml. A NUGC-4 tumor-bearing mouse model was established by subcutaneous inoculation of 0.2 ml of cell suspension into the right abdominal region of BALB/c-NUDE mice on day 0.
Tumor volume of each mouse was measured 13 days after tumor cell inoculation, the mice with tumor volumes about 200 mm^3 were selected and grouped on average according to their tumor volume (7 mice per group). […] Administrations were conducted on day 13 after inoculation respectively, and the tumor volume and body weight of mice were monitored twice a week. […] Measurement of tumor volume: the maximum long axis (L) and maximum wide axis (W) of the tumor were measured using a vernier caliper, and the tumor volume was calculated as follows: V=L×W^2/2. Body weight was measured using an electronic balance. Table 3. Experimental design

human HER3 = molecular target: T1, human HER3 (human, UniProt P21860 20-643, limits assumed); experiment: ELISA, HER3 antigen coated on plate, anti-human IgG Fc-HRP detection
T1 construct: Coated at 0.25 ug/mL; also called HER3 antigen; ErbB3

human EGFR = molecular target: T2, human EGFR (human, UniProt P00533 25-645, limits assumed); experiment: ELISA, EGFR antigen coated on plate, anti-human IgG Fc-HRP detection
T2 construct: Coated at 0.25 ug/mL; also called EGFR antigen

[2] = system: human breast cancer cells MCF7; experiment: In vitro cell killing assay (CTG); format: cell-based
Method: After 2-3 passages of the resurrected MCF7 cells, the culture medium was poured out firstly, rinsed with 10 mL PBS once, then the cells were digested with 4mL trypsin, the culture medium was terminated before centrifuged at 400xg for 3min, the supernatant was discarded, and the culture medium was further resuspended for counting. The cell density was adjusted to 3E4/mL, 50 µL of which per well was added into a round bottom low adsorption 96-well plate. The antibody to be detected was diluted in a gradient manner, then 50 µL of which per well was added into the corresponding cells, cultured at 37 °C for 5 days, then the 96-well plate was taken out, the plate was balanced to room temperature, 100 µL of CTG detection solution was added into each well, placed at a shaker at 300 rpm for 20 min, 100 µL of which was absorbed and placed into the white bottom 96-well plate, and the luminescence value was detected by using a multifunctional microplate reader.

[3] = system: human breast cancer cells MDA-MB-453; experiment: In vitro cell killing assay (CTG); format: cell-based; details: MDA-MB-453, 5 days, Example 13

Molecule | TGI [1] | Tumor volume [1] | Kd (human HER3) | Kd (human EGFR) | fold decrease in Kd against SIB001-DXd (human EGFR) | IC50 ([2]; MCF7, 5 days) | reduction in IC50 ([2]; MCF7, relative to SIB001-DXd) | killing effect [3]
Patritumab-DXd [reference compound] | 51% | 636 mm^3 |  |  |  |  |  | 
B1 |  |  | 0.0257 nM | 0.0352 nM | ~2.5 fold |  |  | 
B2 | 75% | 414 mm^3 |  |  |  | 0.049 nM | approximately 250 fold | significantly stronger killing effect than SIB001-DXd
